Key:
FcRn [1] = assay: FcRn binding assay (method not described); Aggregation Study, albiglutide in NaCl, octanoate and cysteine formulation, stored at 2-8°C for 2 months
FcRn [2] = assay: FcRn binding assay (method not described); Aggregation Study, albiglutide in NaCl, octanoate and cysteine formulation, stored at 30°C for 2 months
FcRn [3] = assay: FcRn binding assay (method not described); Aggregation Study, albiglutide in NaCl + cysteine formulation, stored at 30°C for 2 months
FcRn [4] = assay: FcRn binding assay (method not described); Aggregation Study, albiglutide in NaCl + cysteine formulation, stored at 2-8°C for 2 months
[5] = molecular target: human GLP-1 receptor (human) (UniProt P43220); assay: cell-based or functional assay
UniProt P43220, sequence (P43220 24-463): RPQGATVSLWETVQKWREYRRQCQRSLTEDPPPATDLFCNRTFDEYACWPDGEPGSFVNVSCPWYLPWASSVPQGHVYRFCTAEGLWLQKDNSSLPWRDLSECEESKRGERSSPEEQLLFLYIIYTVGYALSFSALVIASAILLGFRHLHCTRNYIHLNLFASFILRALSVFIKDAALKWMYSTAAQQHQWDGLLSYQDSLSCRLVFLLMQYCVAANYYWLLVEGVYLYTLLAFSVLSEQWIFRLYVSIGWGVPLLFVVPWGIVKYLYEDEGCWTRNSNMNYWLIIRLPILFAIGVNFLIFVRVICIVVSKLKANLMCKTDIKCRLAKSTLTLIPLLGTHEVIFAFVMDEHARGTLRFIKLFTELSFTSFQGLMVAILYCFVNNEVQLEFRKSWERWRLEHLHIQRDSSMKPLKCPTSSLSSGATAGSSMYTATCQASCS

decrease in FcRn binding (FcRn [1]): 16%
decrease in FcRn binding (FcRn [2]): 23%
decrease in FcRn binding (FcRn [3]): 23%
decrease in FcRn binding (FcRn [4]): 6%
Bioassay potency; Aggregation Study, all formulations, 2 months 30°C (lower end) [5]: 130%
Bioassay potency; Aggregation Study, all formulations, 2 months 30°C (upper end) [5]: 160%
Bioassay potency; PFS Study, Variations A and B, 1 month 40°C [5]: 180%
Bioassay potency; PFS Study, all variations, 3 months 30°C [5]: 130%
Substance: albiglutide (from UniProt P02768 25-609) (ligand)
